From paper PMC7641770, “Novel polyadenylylation-dependent neutralization mechanism of the HEPN/MNT toxin/antitoxin system” (Nucleic Acids Research, 2020)
Positions count from the first letter of the chain named. Numbers in names are those of the source.

Tests used:
crystal structure = target: the molecule itself; experiment: crystal structure
[1] = target: T1, MntA antitoxin (SO_3165) of Shewanella oneidensis, untagged (Shewanella oneidensis, UniProt Q8ECH7 1-139); experiment: pull-down; settings: partners not purified
T1 construct: also called MNT antitoxin; native MntA

[2] = target: T1, MntA antitoxin (SO_3165) of Shewanella …; experiment: crystal structure; co-expressed complex purified (Superdex 200, 20 mM Tris pH 8.0, 150 mM NaCl), sitting drop vapor diffusion at 16°C; (HepT)6-(MntA)2 hetero-octamer; settings: both partners purified
[3] = target: the molecule itself; experiment: as above
[4] = target: MntA D39E,D41E (SO_3165) of Shewanella oneidensis, untagged (Shewanella oneidensis, UniProt Q8ECH7 1-139, D39E | D41E); experiment: crystal structure; settings: both partners purified

B1: HepT toxin (SO_3166) of Shewanella oneidensis, C-terminal His6 tag, polyadenylylated at Y104 by co-produced MntA (natural protein, UniProt Q8ECH6 1-133, looked up)
chain: MNDIIINKIATIKRCIKRIQQVYGDGSQFKQDFTLQDSVILNLQRCCEACIDIANHINRQQQLGIPQSSRDSFTLLAQNNLITQPLSDNLKKMVGLRNIAVHDYQELNLDIVVHVVQHHLEDFEQFIDVIKAE
notes: also called HEPN toxin; modified HepT
B1: binds (crystal structure); binds [1].

B2: HepT Y104A (SO_3166) of Shewanella oneidensis, C-terminal His6 tag (natural protein, UniProt Q8ECH6 1-133, looked up)
chain: B1 chain with Y104A
notes: also called unmodified HepT^Y104A
B2: binds [2]; binds [3].

B3: HepT toxin (SO_3166) of Shewanella oneidensis, C-terminal His6 tag, unmodified (co-produced with an inactive MntA variant) (natural protein, UniProt Q8ECH6 1-133, looked up)
chain: B1 chain
notes: also called unmodified HepT
B3: binds [4].
